Laboratory results from US20210380656A1 (ACADEMISCH ZIEKENHUIS LEIDEN H O D N LUMC, published 2021).

T1: HA-1^H, minor histocompatibility antigen encoded by HMHA1 (Rho GTPase-activating protein 45), R139H … (human)
T1 peptide: VLHDDLLEA


Tests used:
HA-1 pMHC tetramer = target: T2, HA-1 pMHC tetramer (human); assay: HA-1 pMHC tetramer staining of peripheral T cells transduced with the TCR chains, flow cytometry
T2 construct: also called HA-1 tetramer; HA-1-tetramer

[1] = target: T1, HA-1^H, minor histocompatibility …; assay: multimer staining

Binder	MFI of HA-1 pMHC tetramer (HA-1 pMHC tetramer) [MFI]	binding result [1]
HA-1-TCR of clone M7 (M7 TRBV7-9 with M7 TRAV25*01), unmodified (TCR, V domains shown, Expressed on transduced T cells; also called HA-1^H TCR M7; HA-1-TCR WT) V domain 1: GQQVMQIPQYQHVQEGEDFTTYCNSSTTLSNIQWYKQRPGGHPVFLIQLVKSGEVKKQKRLTFQFGEAKKNSSLHITATQTTDVGTYFCAGNTGGFKTIFGAGTRLFVKA V domain 2: GVSQDPRHKITKRGQNVTFRCDPISEHNRLYWYRQTLGQGPEFLTYFQNEAQLEKSRLLSDRFSAERPKGSFSTLEIQRTEQGDSAMYLCASSLLGNQPQHFGDGTRLSILE	33.8	
HA-1^H TCR M7 (TCR, V domains shown) Valpha: GQQVMQIPQYQHVQEGEDFTTYCNSSTTLSNIQWYKQRPGGHPVFLIQLVKSGEVKKQKRLTFQFGEAKKNSSLHITATQTTDVGTYFCAGNTGGFKTIFGAGTRLFVKA Vbeta: DTGVSQDPRHKITKRGQNVTFRCDPISEHNRLYWYRQTLGQGPEFLTYFQNEAQLEKSRLLSDRFSAERPKGSFSTLEIQRTEQGDSAMYLCASSLLGNQPQHFGDGTRLSIL		recognises
Chimeric HA-1 TCR: M7 TCR alpha chain (TRAV25*01) with M2 TCR beta chain (TRBV7-9) (TCR, V domains shown) Valpha: GQQVMQIPQYQHVQEGEDFTTYCNSSTTLSNIQWYKQRPGGHPVFLIQLVKSGEVKKQKRLTFQFGEAKKNSSLHITATQTTDVGTYFCAGNTGGFKTIFGAGTRLFVKA Vbeta: DTGVSQNPRHKITKRGQNVTFRCDPISEHNRLYWYRQTLGQGPEFLTYFQNEAQLEKSRLLSDRFSAERPKGSFSTLEIQRTEQGDSAMYLCASLTVQNTEAFFGQGTRLTVV		recognises
HA-1-TCR of clone M2 (M2 TRBV7-9 with M2 TRAV13-1*02) (TCR, V domains shown, Expressed on transduced peripheral T cells; also called HA-1^H TCR M2) V domain 1: GENVEQHPSTLSVQEGDSAVIKCTYSDSASNYFPWYKQELGKRPQLIIDIRSNVGEKKDQRIAVTLNKTAKHFSLHITETQPEDSAVYFCAARNSGAGSYQLTFGKGTKLSVIP V domain 2: DTGVSQNPRHKITKRGQNVTFRCDPISEHNRLYWYRQTLGQGPEFLTYFQNEAQLEKSRLLSDRFSAERPKGSFSTLEIQRTEQGDSAMYLCASLTVQNTEAFFGQGTRLTVVE	24.2	
HA-1^H TCR M2 (TCR, V domains shown) Valpha: GENVEQHPSTLSVQEGDSAVIKCTYSDSASNYFPWYKQELGKRPQLIIDIRSNVGEKKDQRIAVTLNKTAKHFSLHITETQPEDSAVYFCAARNSGAGSYQLTFGKGTKLSVIP Vbeta: DTGVSQNPRHKITKRGQNVTFRCDPISEHNRLYWYRQTLGQGPEFLTYFQNEAQLEKSRLLSDRFSAERPKGSFSTLEIQRTEQGDSAMYLCASLTVQNTEAFFGQGTRLTVV		recognises
Chimeric TCR: M2 TRBV7-9 beta chain with M7 TRAV25*01 alpha chain (TCR, V domains shown, The entries include the leader) V domain 1: GQQVMQIPQYQHVQEGEDFTTYCNSSTTLSNIQWYKQRPGGHPVFLIQLVKSGEVKKQKRLTFQFGEAKKNSSLHITATQTTDVGTYFCAGNTGGFKTIFGAGTRLFVKA V domain 2: DTGVSQNPRHKITKRGQNVTFRCDPISEHNRLYWYRQTLGQGPEFLTYFQNEAQLEKSRLLSDRFSAERPKGSFSTLEIQRTEQGDSAMYLCASLTVQNTEAFFGQGTRLTVVE	32.6	
